Assay results taken from patent US20020102256A1 (ZymoGenetics, published 2002).
Where “and” joins values, the source holds several entries; their conditions need not be identical. Equal values may be shown once.

T1: Activated human C1s (Calbiochem-Novabiochem Corporation) (human, UniProt P09871 16-688)
T1 sequence (looked up): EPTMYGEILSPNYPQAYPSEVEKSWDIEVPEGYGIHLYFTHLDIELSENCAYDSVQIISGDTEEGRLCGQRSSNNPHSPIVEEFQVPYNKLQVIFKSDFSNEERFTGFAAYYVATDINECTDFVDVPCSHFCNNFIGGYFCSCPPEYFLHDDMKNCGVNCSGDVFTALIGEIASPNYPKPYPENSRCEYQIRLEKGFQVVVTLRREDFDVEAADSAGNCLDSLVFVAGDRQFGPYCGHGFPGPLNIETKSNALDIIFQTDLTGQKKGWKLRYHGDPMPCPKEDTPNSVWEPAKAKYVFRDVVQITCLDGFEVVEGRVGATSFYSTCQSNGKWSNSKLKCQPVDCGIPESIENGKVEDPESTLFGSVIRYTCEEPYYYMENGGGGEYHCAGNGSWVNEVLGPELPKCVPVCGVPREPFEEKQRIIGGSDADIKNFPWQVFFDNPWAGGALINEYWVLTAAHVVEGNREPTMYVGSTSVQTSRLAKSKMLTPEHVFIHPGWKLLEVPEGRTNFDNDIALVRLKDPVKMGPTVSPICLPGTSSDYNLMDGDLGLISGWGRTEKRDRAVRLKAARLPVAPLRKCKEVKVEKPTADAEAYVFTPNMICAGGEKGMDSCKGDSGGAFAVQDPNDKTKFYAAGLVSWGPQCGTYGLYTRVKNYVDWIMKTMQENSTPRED

T2: Activated human C1s (Calbiochem-Novabiochem Corporation) (human) (UniProt P09871)
T2 sequence (looked up): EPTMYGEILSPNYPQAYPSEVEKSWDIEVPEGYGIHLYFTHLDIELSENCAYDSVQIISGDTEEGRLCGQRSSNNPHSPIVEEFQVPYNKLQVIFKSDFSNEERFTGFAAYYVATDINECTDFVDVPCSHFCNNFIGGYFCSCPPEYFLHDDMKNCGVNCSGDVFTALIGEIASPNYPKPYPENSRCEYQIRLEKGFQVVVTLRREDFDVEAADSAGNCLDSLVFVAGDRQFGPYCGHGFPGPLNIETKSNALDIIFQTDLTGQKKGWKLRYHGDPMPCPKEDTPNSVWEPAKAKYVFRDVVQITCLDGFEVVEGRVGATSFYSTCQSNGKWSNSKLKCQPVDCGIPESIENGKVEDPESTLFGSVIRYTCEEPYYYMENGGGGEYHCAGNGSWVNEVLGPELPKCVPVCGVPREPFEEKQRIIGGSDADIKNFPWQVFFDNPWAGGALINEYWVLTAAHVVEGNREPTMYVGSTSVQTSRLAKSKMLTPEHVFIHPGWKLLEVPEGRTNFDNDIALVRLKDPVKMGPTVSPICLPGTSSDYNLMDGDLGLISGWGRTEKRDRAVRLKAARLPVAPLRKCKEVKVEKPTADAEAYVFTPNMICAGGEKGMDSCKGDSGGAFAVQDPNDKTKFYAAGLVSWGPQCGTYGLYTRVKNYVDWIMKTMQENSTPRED

B1: Deglycosylated and cleaved recombinant BD001 (other)
chain 1: AKKKLPKCQKQEDCGSWDLKCNNVTKKCECRNQVCGRGCPKERYQRDKYGCRKCLCKGCDGFKCR
chain 2: LGCTYGFKTDKKGCEAFCTCNTKETACVNIWCTDPYKCNPESGRCEDPNEEYEYDYE
modifications: sulfation of at least one of Tyr117, Tyr119 and Tyr121; glycan at Asn23 removed with PNGase F
B2: Cleaved recombinant BD001 (other)
chain 1: AKKKLPKCQKQEDCGSWDLKCNNVTKKCECRNQVCGRGCPKERYQRDKYGCRKCLCKGCDGFKCR
chain 2: LGCTYGFKTDKKGCEAFCTCNTKETACVNIWCTDPYKCNPESGRCEDPNEEYEYDYE
modifications: sulfation of at least one of Tyr117, Tyr119 and Tyr121; glycosylation at Asn23 (fucosylated complex-type core)
B3: Desulfated and cleaved recombinant BD001 (other)
chain 1: AKKKLPKCQKQEDCGSWDLKCNNVTKKCECRNQVCGRGCPKERYQRDKYGCRKCLCKGCDGFKCR
chain 2: LGCTYGFKTDKKGCEAFCTCNTKETACVNIWCTDPYKCNPESGRCEDPNEEYEYDYE
modifications: sulfate groups removed from Tyr117/Tyr119/Tyr121 with aryl sulfatase; glycosylation at Asn23 (fucosylated complex-type core)
B4: Recombinant BD001 expressed in Baculovirus (protein)
chain: AKKKLPKCQKQEDCGSWDLKCNNVTKKCECRNQVCGRGCPKERYQRDKYGCRKCLCKGCDGFKCRLGCTYGFKTDKKGCEAFCTCNTKETACVNIWCTDPYKCNPESGRCEDPNEEYEYDYE
modifications: glycosylation at Asn23 (fucosylated complex-type core); sulfation of at least one of Tyr117, Tyr119 and Tyr121 (tyrosine sulfation at the C-terminus on three tyrosine residues)
B5: BD001 protein isolated from Pichia methanolica (protein)
chain: AKKKLPKCQKQEDCGSWDLKCNNVTKKCECRNQVCGRGCPKERYQRDKYGCRKCLCKGCDGFKCRLGCTYGFKTDKKGCEAFCTCNTKETACVNIWCTDPYKCNPESGRCEDPNEEYEYDYE
modifications: lacks tyrosine sulfation at the C-terminus and N-glycosylation
B6: BD001 isolated from tissue (protein)
chain: AKKKLPKCQKQEDCGSWDLKCNNVTKKCECRNQVCGRGCPKERYQRDKYGCRKCLCKGCDGFKCRLGCTYGFKTDKKGCEAFCTCNTKETACVNIWCTDPYKCNPESGRCEDPNEEYEYDYE
modifications: glycosylation at Asn23 (fucosylated complex-type core); sulfation of at least one of Tyr117, Tyr119 and Tyr121
B7: Desulfated recombinant BD001 (protein)
chain: AKKKLPKCQKQEDCGSWDLKCNNVTKKCECRNQVCGRGCPKERYQRDKYGCRKCLCKGCDGFKCRLGCTYGFKTDKKGCEAFCTCNTKETACVNIWCTDPYKCNPESGRCEDPNEEYEYDYE
modifications: sulfate groups removed from Tyr117/Tyr119/Tyr121 with aryl sulfatase; glycosylation at Asn23
B8: Deglycosylated recombinant BD001 (protein)
chain: AKKKLPKCQKQEDCGSWDLKCNNVTKKCECRNQVCGRGCPKERYQRDKYGCRKCLCKGCDGFKCRLGCTYGFKTDKKGCEAFCTCNTKETACVNIWCTDPYKCNPESGRCEDPNEEYEYDYE
modifications: glycan at Asn23 removed with PNGase F; sulfation of at least one of Tyr117, Tyr119 and Tyr121

Legend:
Assay in all cases: cell-based or functional assay
[1] = target: T1, Activated human C1s …
[2] = target: T1, Activated human C1s …; remark: listed apart in the source
[3] = target: T2, Activated human C1s (Calbiochem-Novabiochem Corporation) (human)

Binder	IC50 (nM), C1s enzyme assay [1] [nM]	IC50 (nM), C1s enzyme assay [3]	further results
B1	21.9		
B2	19.8		fold higher IC50 than the matched, intact form, C1s enzyme assay [2]: ~10 fold
B3	558		
B4		2.5 nM	IC50, C1s enzyme assay (decrease in Vmax of Pefa-C1E cleavage) [3]: 5.2 nM
B5			IC50, C1s enzyme assay (decrease in Vmax of Pefa-C1E cleavage) [3]: 44 nM; fold decrease in activity in bioassays compared with the baculovirus-expressed material [3]: 10 fold; fold less active than the baculovirus material, C1s enzyme assay [3]: 8 fold
B6		4 nM and 4.7 nM	
B7		36 nM	
B8		2.86 nM	
